Laboratory results from US5215888A, “Kit for assaying the cellular integrity of blood platelets” (Yeda Research and Development Co. Ltd., priority 1988, dated 1993).
Ends that are not written are not given here.

Columns and labels:
[1] = target: T1, PKA (Homo sapiens, UniProt P17612); assay: Inhibition of vitronectin phosphorylation by PKA in the presence of competing peptide; format: biochemical; settings: for inhibition of the phosphorylation of vitronectin by PKA (in words): competitive
T1 construct: pure catalytic subunit of PKA from rabbit muscle; from tissue
Description: Peptides containing the sequence Arg-Arg-Pro-X-Arg (X=Ser, Thr, Ala, Cys, Tyr) inhibit the phosphorylation of vitronectin by PKA.
FIG. 5 Inhibition of vitronectin phosphorylation by PKA in the presence of the indicated concentrations of a peptide identical in sequence to the site phosphorylated in vitronectin.

[2] = tested on: vitronectin phosphorylation by PKA; assay: Phosphorylation of vitronectin at various pH in the presence or absence of heparin; format: biochemical; settings: 3-fold molar excess of heparin over vitronectin (2.7 μM); FIG. 6
Experimental: The phosphorylation of vitronectin (p75 and mainly the p65 form) is affected by pH and by the presence of heparin in the reaction mixture (FIG. 6).
FIG. 6 Vitronectin (2.7 μM was incubated for 2 h at 22° C. with C (1 μg/ml) in the presence of Mg(CH3 COO)2 (10 mM), [γ^32 ]ATP 50 μM, 0.5 Ci/mmol), (50 Mes at the indicated pH), and a 3-fold molar excess of heparin over vitronectin (where indicated). The reaction was terminated by boiling in Laemli's sample buffer and the extent of phosphorylation was analyzed by polyacrylamide gel electrophoresis and autoradiography.

| inhibition of the phosphorylation of vitronectin by PKA (in words) [1] | Ki ([1]; FIG. 5, peptide competes as alternative substrate, read-out: Ki concentration for inhibition of the phosphorylation of vitronectin by PKA) | Substance | effect on the amount of phosphorylation of vitronectin [2] |
| --- | --- | --- | --- |
| competitively inhibit |  | -Arg-Arg-Pro-Ser-Arg- (RRPSR; printed: Arg-Arg-Pro-Ser-Arg-) |  |
| compete with (inhibit) | 30 µM | SRRPSRAT |  |
|  |  | heparin | increase |
